Data published in patent US7642244 (Hoffmann-La Roche, dated 2010).
Starred links: 1 amine or outer side, 2 acyl side, 3 side chain; linkers in the order of their positions; H or OH if unused. Non-standard residues stand in square brackets, D forms with d. No end group written: not given here. Pqa = 4-oxo-6-(1-piperazinyl)-3(4H)-quinazoline-acetic acid, O=C(Cn1cnc2ccc(N3CCN([*:1])CC3)cc2c1=O)[*:2]; Phe(3,4-Cl2) = N[C@@H](Cc1ccc(Cl)c(Cl)c1)C(=O)O; Phe(4-CF3) = N[C@@H](Cc1ccc(C(F)(F)F)cc1)C(=O)O; Phe(F5) = N[C@@H](Cc1c(F)c(F)c(F)c(F)c1F)C(=O)O; PEG30,000 SSA = (PEG-30,000)CH2CH2NHCOCH2CH2CO; Phe(3-F) = N[C@@H](Cc1cccc(F)c1)C(=O)O; NMeR = CN[C@@H](CCCNC(=N)N)C(=O)O

T1: human NPY2 receptor (human, UniProt P49146 1-381)
T1 sequence (looked up): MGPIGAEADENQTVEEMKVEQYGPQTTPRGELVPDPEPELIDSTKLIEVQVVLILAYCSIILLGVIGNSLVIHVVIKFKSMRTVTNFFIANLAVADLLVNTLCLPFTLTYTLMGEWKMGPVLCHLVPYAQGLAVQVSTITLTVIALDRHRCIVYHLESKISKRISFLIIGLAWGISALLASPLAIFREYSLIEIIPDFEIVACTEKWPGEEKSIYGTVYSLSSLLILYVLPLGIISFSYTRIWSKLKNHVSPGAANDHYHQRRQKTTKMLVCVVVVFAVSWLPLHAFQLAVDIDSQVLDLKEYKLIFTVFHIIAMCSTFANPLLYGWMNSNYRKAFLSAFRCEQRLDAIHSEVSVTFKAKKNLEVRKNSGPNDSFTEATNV

T2: Y5R
T2 sequence (Q15761 whole entry, species assumed, looked up): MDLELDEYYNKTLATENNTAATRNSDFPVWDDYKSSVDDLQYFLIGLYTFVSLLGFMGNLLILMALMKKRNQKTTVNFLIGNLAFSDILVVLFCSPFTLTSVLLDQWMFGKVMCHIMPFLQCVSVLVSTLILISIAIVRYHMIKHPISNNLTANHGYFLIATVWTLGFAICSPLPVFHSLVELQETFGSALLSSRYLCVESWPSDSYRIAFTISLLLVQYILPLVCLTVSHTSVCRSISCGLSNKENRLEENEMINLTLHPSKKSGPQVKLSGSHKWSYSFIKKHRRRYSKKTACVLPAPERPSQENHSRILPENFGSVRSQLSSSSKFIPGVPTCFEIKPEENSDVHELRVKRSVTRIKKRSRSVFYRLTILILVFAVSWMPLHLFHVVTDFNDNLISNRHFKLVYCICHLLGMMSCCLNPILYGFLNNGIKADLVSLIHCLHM


Assays:
Experiment in all cases: cell-based or functional assay
[1] = target: T1, human NPY2 receptor
[2] = target: Y4R
[3] = target: Y1R
[4] = target: T2, Y5R

Chain of Y1R (P25929 whole entry): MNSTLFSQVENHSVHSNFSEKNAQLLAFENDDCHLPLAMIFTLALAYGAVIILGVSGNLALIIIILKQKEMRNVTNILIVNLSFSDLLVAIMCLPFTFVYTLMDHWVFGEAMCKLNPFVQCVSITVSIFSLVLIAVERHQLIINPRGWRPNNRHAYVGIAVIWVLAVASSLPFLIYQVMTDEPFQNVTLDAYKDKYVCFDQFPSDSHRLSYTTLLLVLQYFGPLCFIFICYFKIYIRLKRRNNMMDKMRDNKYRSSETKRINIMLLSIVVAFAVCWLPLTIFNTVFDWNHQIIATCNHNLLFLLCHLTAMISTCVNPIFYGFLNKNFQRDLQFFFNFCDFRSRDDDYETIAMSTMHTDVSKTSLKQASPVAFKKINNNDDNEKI

Row | Binder | Y2R EC50 (nM) FLIPR [1] [nM] | Y2R EC50 (nM) cAMP [1] [nM] | Y4R EC50 (nM) FLIPR [2] [nM] | Y1R EC50 (nM) FLIPR [3] [nM] | Y5R EC50 (nM) FLIPR [4] [nM]
1 | H-IK[Pqa]RHYLNLVTRQ[NMeR]F-NH2 [H-Ile-Lys-Pqa-Arg-His-Tyr-Leu-Asn-Leu-Val-Thr-Arg-Gln-(NMe)Arg-Phe-NH2] | 1.54 | 0.69 |  |  | 
2 | IXXRHYLNWVTRQRY (Nle as second residue; Pqa as third residue; (NMe)Arg as penultimate residue; C-terminal amide (NH2)) [H-Ile-Nle-Pqa-Arg-His-Tyr-Leu-Asn-Trp-Val-Thr-Arg-Gln-(NMe)Arg-Tyr-NH2] | 8.1 | 0.108 | > 5000 | > 5000 | > 5000
3 | IKXRHYLNLVTRQRX (Pqa as third residue; (NMe)Arg as penultimate residue; 1-Nal (1-Naphthyl Alanine) as C-terminal residue; C-terminal amide (NH2)) [H-Ile-Lys-Pqa-Arg-His-Tyr-Leu-Asn-Leu-Val-Thr-Arg-Gln-(NMe)Arg-1-Nal-NH2] | 2.73 | 1.14 |  |  | 
4 | H-IK[Pqa]RHYLNLVTRQ[NMeR][Phe(F5)]-NH2 [H-Ile-Lys-Pqa-Arg-His-Tyr-Leu-Asn-Leu-Val-Thr-Arg-Gln-(NMe)Arg-2,3,4,5,6 Pentafluoro-Phe-NH2] | 11.9 | 2.5 |  |  | 
5 | IKXRHYLNWVTRQRY (HELM PEPTIDE1{[CC(C)(C)C(=O)[*:2]].I.K.[O=C(Cn1cnc2ccc(N3CCN([*:1])CC3)cc2c1=O)[*:2]].R.H.Y.L.N.W.V.T.R.Q.[meR].Y.[am]}$$$$V2.0; SMILES CC[C@H](C)[C@H](NC(=O)C(C)(C)C)C(=O)N[C@@H](CCCCN)C(=O)N1CCN(c2ccc3ncn(CC(=O)N[C@@H](CCCNC(=N)N)C(=O)N[C@@H](Cc4c[nH]cn4)C(=O)N[C@@H](Cc4ccc(O)cc4)C(=O)N[C@@H](CC(C)C)C(=O)N[C@@H](CC(N)=O)C(=O)N[C@@H](Cc4c[nH]c5ccccc45)C(=O)N[C@H](C(=O)N[C@H](C(=O)N[C@@H](CCCNC(=N)N)C(=O)N[C@@H](CCC(N)=O)C(=O)N(C)[C@@H](CCCNC(=N)N)C(=O)N[C@@H](Cc4ccc(O)cc4)C(N)=O)[C@@H](C)O)C(C)C)c(=O)c3c2)CC1) [Trimethylacetyl-Ile-Lys-Pqa-Arg-His-Tyr-Leu-Asn-Trp-Val-Thr-Arg-Gln-(NMe)Arg-Tyr-NH2] | 1.1 | 0.26 | > 5000 | > 5000 | > 5000
6 | IK[Pqa]RHYLNWVTRQ[NMeR]Y-NH2 (also: mixture: PEG30,000 SPA on N-terminal Ile or on Lys ε-amino (majority on Lys)) |  |  | > 5000 | > 5000 | > 5000
7 | IKXRHYLNLVTRQRX (Pqa as third residue; (NMe)Arg as penultimate residue; 2-Nal (2-Naphthyl Alanine) as C-terminal residue; C-terminal amide (NH2)) [H-Ile-Lys-Pqa-Arg-His-Tyr-Leu-Asn-Leu-Val-Thr-Arg-Gln-(NMe)Arg-2-Nal-NH2] | 4.11 | 2.4 |  |  | 
8 | IKXRHYLNLVTRQRF (Pqa as third residue; (NMe)Arg as penultimate residue; 4 Methoxy-Phe as C-terminal residue; C-terminal amide (NH2)) [H-Ile-Lys-Pqa-Arg-His-Tyr-Leu-Asn-Leu-Val-Thr-Arg-Gln-(NMe)Arg-4 Methoxy-Phe-NH2] | 0.74 | 0.55 |  |  | 
9 | IKXRHYLNWVTRQRY (HELM PEPTIDE1{[CCCCC(=O)[*:2]].I.K.[O=C(Cn1cnc2ccc(N3CCN([*:1])CC3)cc2c1=O)[*:2]].R.H.Y.L.N.W.V.T.R.Q.[meR].Y.[am]}$$$$V2.0; SMILES CCCCC(=O)N[C@H](C(=O)N[C@@H](CCCCN)C(=O)N1CCN(c2ccc3ncn(CC(=O)N[C@@H](CCCNC(=N)N)C(=O)N[C@@H](Cc4c[nH]cn4)C(=O)N[C@@H](Cc4ccc(O)cc4)C(=O)N[C@@H](CC(C)C)C(=O)N[C@@H](CC(N)=O)C(=O)N[C@@H](Cc4c[nH]c5ccccc45)C(=O)N[C@H](C(=O)N[C@H](C(=O)N[C@@H](CCCNC(=N)N)C(=O)N[C@@H](CCC(N)=O)C(=O)N(C)[C@@H](CCCNC(=N)N)C(=O)N[C@@H](Cc4ccc(O)cc4)C(N)=O)[C@@H](C)O)C(C)C)c(=O)c3c2)CC1)[C@@H](C)CC) [Pentoyl-Ile-Lys-Pqa-Arg-His-Tyr-Leu-Asn-Trp-Val-Thr-Arg-Gln-(NMe)Arg-Tyr-NH2] | 0.873 | 0.51 | > 5000 | > 5000 | > 5000
10 | IKXRHYLNLVTRQRX (Pqa as third residue; (NMe)Arg as penultimate residue; Cha (Cyclohexyl Alanine) as C-terminal residue; C-terminal amide (NH2)) [H-Ile-Lys-Pqa-Arg-His-Tyr-Leu-Asn-Leu-Val-Thr-Arg-Gln-(NMe)Arg-Cha-NH2] | 0.498 | 0.5 |  | > 5000 | 352
11 | IXXRHYLNWVTRQRY (PEG30,000-SSA (PEG-CH2CH2NHCOCH2CH2CO-) on the N-terminal Ile; Nle as second residue; Pqa as third residue; (NMe)Arg as penultimate residue; C-terminal amide (NH2)) [((PEC30,000)CH2Cl2NHCOCH2CH2CO)Ile-Nle-Pqa-Arg-His-Tyr-Leu-Asn-Trp-Val-Thr-Arg-Gln-(NMe)Arg-Tyr-NH2] |  |  | > 5000 | > 5000 | > 5000
12 | H-IK(PEG30,000 SSA)[Pqa]RHYLNWVTRQ[NMeR]Y-NH2 |  |  | > 5000 | > 5000 | > 5000
13 | H-IK[Pqa]RHYLNLVTRQ[NMeR][Phe(3-F)]-NH2 [H-Ile-Lys-Pqa-Arg-His-Tyr-Leu-Asn-Leu-Val-Thr-Arg-Gln-(NMe)Arg-3Fluoro-Phe-NH2] | 0.635 | 0.75 |  |  | 
14 | IK[Pqa]RHYLNWVTRQ[NMeR]Y-NH2 (also: mixture: PEG40,000 BTC on N-terminal Ile or on Lys ε-amino) |  |  | > 5000 | > 5000 | > 5000
15 | IKXRHYLNWVTRQRY (HELM PEPTIDE1{[O=C(CC1CCCCC1)[*:2]].I.K.[O=C(Cn1cnc2ccc(N3CCN([*:1])CC3)cc2c1=O)[*:2]].R.H.Y.L.N.W.V.T.R.Q.[meR].Y.[am]}$$$$V2.0; SMILES CC[C@H](C)[C@H](NC(=O)CC1CCCCC1)C(=O)N[C@@H](CCCCN)C(=O)N1CCN(c2ccc3ncn(CC(=O)N[C@@H](CCCNC(=N)N)C(=O)N[C@@H](Cc4c[nH]cn4)C(=O)N[C@@H](Cc4ccc(O)cc4)C(=O)N[C@@H](CC(C)C)C(=O)N[C@@H](CC(N)=O)C(=O)N[C@@H](Cc4c[nH]c5ccccc45)C(=O)N[C@H](C(=O)N[C@H](C(=O)N[C@@H](CCCNC(=N)N)C(=O)N[C@@H](CCC(N)=O)C(=O)N(C)[C@@H](CCCNC(=N)N)C(=O)N[C@@H](Cc4ccc(O)cc4)C(N)=O)[C@@H](C)O)C(C)C)c(=O)c3c2)CC1) [Cyclohexylacetyl-Ile-Lys-Pqa-Arg-His-Tyr-Leu-Asn-Trp-Val-Thr-Arg-Gln-(NMe)Arg-Tyr-NH2] | 1.67 | 1.37 | > 5000 | > 5000 | > 5000
16 | H-IK[Pqa]RHYLNLVTRQ[NMeR][Phe(4-CF3)]-NH2 [H-Ile-Lys-Pqa-Arg-His-Tyr-Leu-Asn-Leu-Val-Thr-Arg-Gln-(NMe)Arg-4-trifluoro methyl-Phe-NH2] | 6.13 | 3.55 |  |  | 
17 | H-IK[Pqa]RHYLNWVTRQ[NMeR]Y-NH2 [H-Ile-Lys-Pqa-Arg-His-Tyr-Leu-Asn-Trp-Val-Thr-Arg-Gln-(NMe)Arg-Tyr-NH2] | 0.44 | 0.25 | > 5000 | 298 | > 5000
18 | H-IK[Pqa]RHYLNLVTRQ[NMeR][Phe(3,4-Cl2)]-NH2 [H-Ile-Lys-Pqa-Arg-His-Tyr-Leu-Asn-Leu-Val-Thr-Arg-Gln-(NMe)Arg-3,4-dichloro-Phe-NH2] | 4.03 | 1.47 |  |  | 
19 | IKXRHYLNWVTRQRY (HELM PEPTIDE1{[ac].I.K.[O=C(Cn1cnc2ccc(N3CCN([*:1])CC3)cc2c1=O)[*:2]].R.H.Y.L.N.W.V.T.R.Q.[meR].[O=C([C@H](Cc1c(F)cc(O)cc1F)N[*:1])[*:2]].[am]}$$$$V2.0; SMILES CC[C@H](C)[C@H](NC(C)=O)C(=O)N[C@@H](CCCCN)C(=O)N1CCN(c2ccc3ncn(CC(=O)N[C@@H](CCCNC(=N)N)C(=O)N[C@@H](Cc4c[nH]cn4)C(=O)N[C@@H](Cc4ccc(O)cc4)C(=O)N[C@@H](CC(C)C)C(=O)N[C@@H](CC(N)=O)C(=O)N[C@@H](Cc4c[nH]c5ccccc45)C(=O)N[C@H](C(=O)N[C@H](C(=O)N[C@@H](CCCNC(=N)N)C(=O)N[C@@H](CCC(N)=O)C(=O)N(C)[C@@H](CCCNC(=N)N)C(=O)N[C@@H](Cc4c(F)cc(O)cc4F)C(N)=O)[C@@H](C)O)C(C)C)c(=O)c3c2)CC1) [Ac-Ile-Lys-Pqa-Arg-His-Tyr-Leu-Asn-Trp-Val-Thr-Arg-Gln-(NMe)Arg-2,6-F2-Tyr-NH2] | 1.44 | 0.07 | > 5000 | > 5000 | 5810
20 | IXXRHYLNWVTRQRY ((PEG-30,000)CH(CH3)CH2CO (PEG30,000 beta-SBA) on the N-terminal Ile; Nle as second residue; Pqa as third residue; (NMe)Arg as penultimate residue; C-terminal amide (NH2)) [((PEG-30,000)CH(CH3)CH2CO)Ile-Nle-Pqa-Arg-His-Tyr-Leu-Asn-Trp-Val-Thr-Arg-Gln-(NMe)Arg-Tyr-NH2] |  |  | > 5000 | > 5000 | > 5000
21 | IKXRHYLNWVTRQRY (HELM PEPTIDE1{[O=C(c1ccccc1)[*:2]].I.K.[O=C(Cn1cnc2ccc(N3CCN([*:1])CC3)cc2c1=O)[*:2]].R.H.Y.L.N.W.V.T.R.Q.[meR].Y.[am]}$$$$V2.0; SMILES CC[C@H](C)[C@H](NC(=O)c1ccccc1)C(=O)N[C@@H](CCCCN)C(=O)N1CCN(c2ccc3ncn(CC(=O)N[C@@H](CCCNC(=N)N)C(=O)N[C@@H](Cc4c[nH]cn4)C(=O)N[C@@H](Cc4ccc(O)cc4)C(=O)N[C@@H](CC(C)C)C(=O)N[C@@H](CC(N)=O)C(=O)N[C@@H](Cc4c[nH]c5ccccc45)C(=O)N[C@H](C(=O)N[C@H](C(=O)N[C@@H](CCCNC(=N)N)C(=O)N[C@@H](CCC(N)=O)C(=O)N(C)[C@@H](CCCNC(=N)N)C(=O)N[C@@H](Cc4ccc(O)cc4)C(N)=O)[C@@H](C)O)C(C)C)c(=O)c3c2)CC1) [Benzoyl-Ile-Lys-Pqa-Arg-His-Tyr-Leu-Asn-Trp-Val-Thr-Arg-Gln-(NMe)Arg-Tyr-NH2] | 0.79 | 0.66 | > 5000 | > 5000 | > 5000
